Assay results from patent US20210169980A1 (HONG KONG UNIVERSITY OF SCIENCE AND TECHNOLOGY, published 2021).
Read-outs that look alike come from different tables or passages of the source.

Assays:
LC3B [1] = target: T1, LC3B (human, UniProt Q9GZQ8 1-125); assay: ITC (table of Kd values)
LGG-2 [2] = target: T2, LGG-2 (C. elegans, UniProt Q23536 1-130, limits assumed); assay: ITC (table of Kd values)
T2 construct: also called worm orthologue of LC3
T2 sequence (looked up): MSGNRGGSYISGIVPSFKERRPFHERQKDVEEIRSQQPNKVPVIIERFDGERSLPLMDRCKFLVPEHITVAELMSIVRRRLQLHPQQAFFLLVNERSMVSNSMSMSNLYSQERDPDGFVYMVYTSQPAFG

LGG-1 [3] = target: T3, LGG-1 (C. elegans, UniProt Q09490 1-123, limits assumed); assay: ITC (table of Kd values)
T3 construct: Purified protein in the ITC; also called worm orthologue of GABARAP
T3 sequence (Q09490 whole entry): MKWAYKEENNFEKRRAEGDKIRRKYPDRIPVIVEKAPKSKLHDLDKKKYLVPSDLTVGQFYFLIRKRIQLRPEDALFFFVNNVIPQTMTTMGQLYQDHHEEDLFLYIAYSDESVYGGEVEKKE

GABARAP [4] = target: T4, GABARAP (human, UniProt O95166 1-117, limits assumed); assay: ITC
T4 construct: elsewhere only "mammalian"
T4 sequence (O95166 whole entry): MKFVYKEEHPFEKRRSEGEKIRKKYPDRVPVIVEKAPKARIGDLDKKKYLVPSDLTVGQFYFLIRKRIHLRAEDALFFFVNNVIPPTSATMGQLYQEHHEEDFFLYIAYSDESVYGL

GABARAPL2 [5] = target: T5, GABARAPL2 (human, UniProt P60520 1-117, limits assumed); assay: ITC
T5 construct: also called GATE-16
T5 sequence (P60520 whole entry): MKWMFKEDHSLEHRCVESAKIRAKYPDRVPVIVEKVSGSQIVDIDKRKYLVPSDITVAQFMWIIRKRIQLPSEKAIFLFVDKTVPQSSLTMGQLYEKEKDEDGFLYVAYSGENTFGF

LC3A [6] = target: T6, LC3A (human, UniProt Q9H492 1-121); assay: ITC
GABARAP R67E [7] = assay: ITC
Chain of GABARAP R67E (chain, as listed by the source R67E R67E limits assumed): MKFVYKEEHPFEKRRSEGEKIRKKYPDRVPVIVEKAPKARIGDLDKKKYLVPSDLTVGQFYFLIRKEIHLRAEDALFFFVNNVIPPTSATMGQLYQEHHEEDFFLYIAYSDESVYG

LC3A R70E [8] = assay: ITC
Chain of LC3A R70E (chain, as listed by the source R70E R70E limits assumed): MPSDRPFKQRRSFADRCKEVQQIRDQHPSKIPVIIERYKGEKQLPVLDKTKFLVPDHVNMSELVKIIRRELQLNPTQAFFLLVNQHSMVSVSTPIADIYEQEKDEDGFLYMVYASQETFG

LC3A [9] = target: T6, LC3A; assay: ITC; remark: listed apart in the source
LC3B [10] = target: T1, LC3B; assay: ITC
LC3C [11] = target: T7, LC3C (human, UniProt Q9BXW4 1-126); assay: ITC
T7 sequence (Q9BXW4 1-126, form in doubt): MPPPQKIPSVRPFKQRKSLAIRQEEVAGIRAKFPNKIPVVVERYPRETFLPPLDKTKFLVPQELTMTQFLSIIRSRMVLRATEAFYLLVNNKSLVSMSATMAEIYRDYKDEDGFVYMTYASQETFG

GABARAP [12] = target: T4, GABARAP; assay: ITC; remark: listed apart in the source
LC3A [13] = target: T6, LC3A; assay: ITC; remark: listed apart in the source
LGG-2 [14] = target: T2, LGG-2; assay: ITC
GABARAP [15] = target: T4, GABARAP; assay: ITC; ratio of the binding to GABARAP against that to LC3A
LC3B [16] = target: T1, LC3B; assay: ITC; remark: listed apart in the source
LC3C [17] = target: T7, LC3C; assay: ITC; remark: listed apart in the source
GABARAPL2 [18] = target: T5, GABARAPL2; assay: competition-based ITC (asterisk; legend paragraph 51)
[..]1 = [..]1 (human, UniProt Q9H0R8 1-117); assay: as above
Chain of [..]1 (Q9H0R8 whole entry): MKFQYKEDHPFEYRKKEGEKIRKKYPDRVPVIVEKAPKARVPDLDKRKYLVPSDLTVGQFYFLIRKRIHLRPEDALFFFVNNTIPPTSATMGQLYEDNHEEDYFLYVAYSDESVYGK

LC3A [19] = target: T6, LC3A; assay: ITC; remark: listed apart in the source
GABARAP R67E [20] = assay: ITC; remark: listed apart in the source
LC3A R70E [21] = assay: ITC; remark: listed apart in the source
GABARAP [22] = target: T4, GABARAP; assay: ITC; remark: listed apart in the source
GABARAP [23] = target: T4, GABARAP; assay: ITC (table of Kd values)
LGG-1 [24] = target: T3, LGG-1; assay: ITC
GABARAP [25] = target: T4, GABARAP; assay: ITC; without the C-helix extension (LIR-S, aa 448-461)

PEDDWTEFSSEEIREARQAAASHAPS [AnkG LIR (AnkG WT peptide, rat 480 kD AnkG residues 1985-2010)] was tested, and the Kd (LC3B [1]) was 339 nM, the Kd (LGG-2 [2]) was 210 nM and the Kd (LGG-1 [3]) was 1.6 nM. The Kd (GABARAP [4]) was ~2.6 nM, the Kd (GABARAPL2 [5]) was ~40 nM and the Kd (LC3A [6]) was 546 nM. For the same binder, the Kd (GABARAP R67E [7]) was 114 nM, the binding result (LC3A R70E [8]) was “no binding” and the Kd (LC3A [9]) was 546 nM. For the same binder, the Kd (LC3B [10]) was 339 nM and the Kd (LC3C [11]) was 2930 nM.

PEDDWTEFSSEEQREARQAAASHAPS (also called AnkG I1997Q) [I1997Q] showed a Kd (LC3A [6]) of ~12500 nM and a Kd (GABARAP [12]) of 68 nM.

B1: W1989R (peptide)
peptide: PEDDRTEFSSEEIREARQAAASHAPS
notes: Untagged peptide used in ITC; m22 is its mCherry fusion; also called AnkG W1989R; AnkG WR
B1: no binding (LC3B [1]); no binding (LGG-2 [2]); no binding (LGG-1 [3]). For the same binder, the binding result (LC3A [6]) was “no binding” and the Kd (GABARAP [12]) was ~12800 nM.

B2: AnkG E1991R (modified from rat 480 kD AnkG residues 1985-2010) (peptide)
peptide: PEDDWTRFSSEEIREARQAAASHAPS
notes: also called AnkG ER; Glu1991Arg AnkG LIR
For B2, the Kd (LGG-2 [2]) was 8470 nM, the Kd (LGG-1 [3]) was 8.5 nM and the “fold lower affinity against AnkG LIR WT” value (LC3A [13]) was ~10 fold. For the same binder, the “fold weaker binding against LGG-1” value (LGG-2 [14]) was ~1000 fold, the Kd (LC3A [6]) was 7190 nM and the Kd (GABARAP [12]) was 6.9 nM. The “selectivity between GABARAP and LC3A” value (GABARAP [15]) was ~1000 fold.

With PEDDWTEFSSERIREARQAAASHAPS (also called AnkG E1996R) [E1996R] the Kd (LC3A [6]) was ~100000 nM and the Kd (GABARAP [12]) was 398 nM.

With PEDDWTEFSSEEIREQRQAAASHAPS (also called AnkG A2000Q) [A2000Q] the Kd (LC3A [6]) was 8200 nM and the Kd (GABARAP [12]) was 741 nM.

SSEEIREARQAAASHAPS [AnkG LIR C-helix alone (aa 1993-2010)]: no binding (GABARAP [4]); no binding (LC3A [6]).

In the case of VEEEWVIVSDEEIEEARQKAPLEITEY [AnkB LIR (AnkB WT peptide, human 440 kD AnkB residues 1588-1614)], the Kd (LC3B [16]) is reported as 4.2 nM, the Kd (LC3C [17]) is reported as 10.5 nM and the Kd (LC3B [1]) is reported as 4.2 nM. For the same binder, the Kd (LGG-1 [3]) was 1.2 nM, the Kd (GABARAPL2 [18]) was 0.21 nM and the Kd ([..]1) was 0.29 nM. For the same binder, the binding result (LGG-2 [14]) was “binds”, the Kd (LC3A [19]) was 3.6 nM and the Kd (GABARAP R67E [20]) was 56 nM. For the same binder, the Kd (LC3A R70E [21]) was 860 nM.

In the case of VEEEWVIVSDERIEEARQKAPLEITEY (also called AnkB E1599R) [E1599R], the Kd (LC3A [19]) is reported as 312 nM and the Kd (GABARAP [22]) is reported as 38 nM.

B3: AnkB W1592R (peptide)
peptide: VEEERVIVSDEEIEEARQKAPLEITEY
notes: also called AnkB WR; Trp1592Arg mutant of AnkB LIR
For B3, the Kd (GABARAP [23]) was > 100000 nM, the binding result (LGG-2 [14]) was “no binding” and the binding result (LGG-1 [24]) was “no binding”. The Kd (LC3A [19]) was ~26600 nM and the Kd (GABARAP [22]) was > 100000 nM.

With PEDDWTEFSSEEIREA [AnkG LIR construct "1985-2000" (aa 2001-2010 truncated)] the “fold decrease of binding against AnkG LIR (aa 1985-2010)” value (GABARAP [4]) was ~200 fold, the Kd (LC3A [6]) was 7410 nM and the Kd (GABARAP [12]) was 510 nM.

B4: human FAM134B LIR without the C-helix extension (LIR-S, aa 448-461) (peptide, UniProt Q9H6L5 448-461, looked up)
peptide: DTEEGDDFELLDQS
notes: range 448-461; also called FAM134B LIR-S
B4 was tested, and the Kd (GABARAP [25]) was 704 nM.
